Measured values reported in patent US6642368B1, “Programmed cell death and caspase-12” (The General Hospital Corporation, priority 1998, dated 2003).

B1: His-tagged caspase-12Δ2 (residues 145-419 of caspase-12L), partially purified from E. coli, autoprocessed into p24 and p10 (protein)
chain 1: TLKLCPRDQFCKIKTERAKEIYPVMEKEGRTRLALIICNKKFDYLFDRDNADTDILNMQELLENLGYSVVLKENLTAQEMETELMQFAGRPEHQSSDSTFLVFMSHGILEGICGVKHRNKKPDVLHDDTIFKIFNNSNCRSLRNKPKILIMQACRGRYNGTIWVSTNKGIATAD
chain 2: TDEERVLSCKWNNSITKAHVETDFIAFKSSTPHNISWKVGKTGSLFISKLIDCFKKYCWCYHLEEIFRKVQHSFEVPGELTQMPTIERVSMTRYFYLFPGN
B2: baculovirus p35: virus inhibitor for the caspase family (protein, UniProt P08160 1-299, looked up)
Early 35 kDa protein: MCVIFPVEIDVSQTIIRDCQVDKQTRELVYINKIMNTQLTKPVLMMFNISGPIRSVTRKNNNLRDRIKSKVDEQFDQLERDYSDQMDGFHDSIKYFKDEHYSVSCQNGSVLKSKFAKILKSHDYTDKKSIEAYEKYCLPKLVDERNDYYVAVCVLKPGFENGSNQVLSFEYNPIGNKVIVPFAHEINDTGLYEYDVVAYVDSVQFDGEQFEEFVQSLILPSSFKNSEKVLYYNEASKNKSMIYKALEFTTESSWGKSEKYNWKIFCNGFIYDKKSKVLYVKLHNVTSALNKNVILNTIK

Assays:
[1] = target: T1, pro-caspase-2 ([35S]-labeled)
T1 sequence (P42575 2-452, species assumed, looked up): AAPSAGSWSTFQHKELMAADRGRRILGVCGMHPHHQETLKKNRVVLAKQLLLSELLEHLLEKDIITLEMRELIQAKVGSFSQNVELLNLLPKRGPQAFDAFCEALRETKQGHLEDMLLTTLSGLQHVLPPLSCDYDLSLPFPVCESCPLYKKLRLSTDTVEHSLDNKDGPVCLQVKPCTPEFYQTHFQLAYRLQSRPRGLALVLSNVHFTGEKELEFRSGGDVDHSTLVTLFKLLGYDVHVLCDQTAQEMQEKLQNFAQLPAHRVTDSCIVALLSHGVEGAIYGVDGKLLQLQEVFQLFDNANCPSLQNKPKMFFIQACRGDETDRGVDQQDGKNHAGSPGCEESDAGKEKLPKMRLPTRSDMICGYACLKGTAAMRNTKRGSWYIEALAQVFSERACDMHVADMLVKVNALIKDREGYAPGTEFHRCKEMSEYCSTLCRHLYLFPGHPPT

[2] = target: poly(ADP-ribose) polymerase
[3] = target: T2, caspase-12Δ (Gly95-Asn419 of caspase-12L, with an artificial initiation codon), [35S]-labeled
T2 chain: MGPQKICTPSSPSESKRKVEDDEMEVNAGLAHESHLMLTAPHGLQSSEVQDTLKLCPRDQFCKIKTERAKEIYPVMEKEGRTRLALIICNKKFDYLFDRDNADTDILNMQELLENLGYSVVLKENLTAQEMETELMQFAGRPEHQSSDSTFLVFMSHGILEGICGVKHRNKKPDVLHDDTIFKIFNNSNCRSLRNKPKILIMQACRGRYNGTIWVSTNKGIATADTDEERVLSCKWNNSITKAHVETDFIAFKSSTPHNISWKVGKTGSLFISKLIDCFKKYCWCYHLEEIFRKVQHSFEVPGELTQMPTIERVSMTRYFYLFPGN

[4] = target: T3, pro-caspase-3 ([35S]-labeled)
T3 sequence (P42574 1-277, species assumed, looked up): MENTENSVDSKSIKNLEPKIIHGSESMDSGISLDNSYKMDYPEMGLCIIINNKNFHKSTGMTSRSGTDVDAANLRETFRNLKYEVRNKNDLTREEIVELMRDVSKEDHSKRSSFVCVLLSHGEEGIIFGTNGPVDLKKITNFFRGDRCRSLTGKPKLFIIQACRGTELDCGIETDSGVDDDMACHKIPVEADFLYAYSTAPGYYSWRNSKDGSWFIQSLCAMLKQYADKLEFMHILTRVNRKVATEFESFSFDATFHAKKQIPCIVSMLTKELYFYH

[5] = target: T4, pro-caspase-12 (caspase-12L, full-length precursor, 419 residues, 48 kDa)
T4 chain: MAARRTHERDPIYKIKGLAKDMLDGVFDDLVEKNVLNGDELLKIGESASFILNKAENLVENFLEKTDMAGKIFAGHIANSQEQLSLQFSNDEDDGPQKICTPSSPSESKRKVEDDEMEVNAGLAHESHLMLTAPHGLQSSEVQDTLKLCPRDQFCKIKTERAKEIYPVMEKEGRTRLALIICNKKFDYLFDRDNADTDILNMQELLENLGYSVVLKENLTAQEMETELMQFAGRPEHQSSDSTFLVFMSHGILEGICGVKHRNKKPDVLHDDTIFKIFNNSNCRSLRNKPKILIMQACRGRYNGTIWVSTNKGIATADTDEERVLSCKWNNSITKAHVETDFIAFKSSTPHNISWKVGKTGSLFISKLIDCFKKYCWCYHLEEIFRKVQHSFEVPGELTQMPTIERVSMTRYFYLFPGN

caspase-12 = target: T5, caspase-12 (Mus musculus, UniProt O08736); experiment: Suppression of cell-killing activity of caspase-12 by baculovirus p35; format: cell-based; details: unpublished data
T5 sequence (O08736 1-419): T4 chain

pro-ICE ([35S]-labeled), sequence (P29466 whole entry): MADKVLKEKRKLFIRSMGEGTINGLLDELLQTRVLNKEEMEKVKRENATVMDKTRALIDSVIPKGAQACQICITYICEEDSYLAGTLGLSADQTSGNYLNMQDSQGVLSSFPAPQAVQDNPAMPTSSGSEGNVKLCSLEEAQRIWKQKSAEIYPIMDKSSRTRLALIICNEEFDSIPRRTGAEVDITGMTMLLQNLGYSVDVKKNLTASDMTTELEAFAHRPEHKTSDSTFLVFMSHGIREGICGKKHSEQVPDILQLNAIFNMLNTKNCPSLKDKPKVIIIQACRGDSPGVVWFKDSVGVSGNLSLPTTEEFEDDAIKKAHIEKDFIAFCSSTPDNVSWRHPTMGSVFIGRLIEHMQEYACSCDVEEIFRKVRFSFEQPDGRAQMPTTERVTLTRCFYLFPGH
pro-IL-1β, sequence (P01584 whole entry): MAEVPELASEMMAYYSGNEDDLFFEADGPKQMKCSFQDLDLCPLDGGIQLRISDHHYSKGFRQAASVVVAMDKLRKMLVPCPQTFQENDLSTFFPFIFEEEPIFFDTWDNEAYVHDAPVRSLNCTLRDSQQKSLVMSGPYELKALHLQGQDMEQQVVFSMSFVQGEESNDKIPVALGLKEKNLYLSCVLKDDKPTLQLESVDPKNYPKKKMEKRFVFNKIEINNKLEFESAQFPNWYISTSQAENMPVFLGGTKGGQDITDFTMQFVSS

| Molecule | in vitro cleavage by the purified protease (pro-IL-1β) | in vitro cleavage of [35S]-labeled pro-enzyme by the partially purified protease [1] | in vitro cleavage by the purified protease [2] | in vitro cleavage of [35S]-labeled protein by the partially purified protease [3] | in vitro cleavage of [35S]-labeled pro-enzyme by the partially purified protease [4] | in vitro cleavage of [35S]-labeled pro-enzyme by the partially purified protease [5] | in vitro cleavage of [35S]-labeled pro-enzyme by the partially purified protease (pro-ICE ([35S]-labeled)) | suppression of cell-killing activity of caspase-12 (caspase-12) |
| --- | --- | --- | --- | --- | --- | --- | --- | --- |
| B1 | showed little activity for cleavage of pro-IL-1β and poly(ADP-ribose) polymerase | only faint bands of cleavage products were visible | showed little activity for cleavage of pro-IL-1β and poly(ADP-ribose) polymerase | the 38 kDa polypeptide was cleaved into 26 kDa and 13 kDa fragments | only faint bands of cleavage products were visible | can efficiently process pro-caspase-12 (48 kDa) into fragments | only faint bands of cleavage products were visible |  |
| B2 |  |  |  |  |  |  |  | could not efficiently suppress |
